Source: patent publication US20220298235A1 (AKESO BIOPHARMA, published 2022)

Experiments:
[1] = biological target: T1, human p40-His (human, UniProt P29460 23-328); experiment: indirect ELISA, p40-His coat 0.25 µg/mL
T1 construct: Made by Akeso Biopharma; construct limits and tag not described; also called human IL-12/IL-23 p40 protein domain; human IL-12/IL-23 p40; not shown: His tag
T1 sequence (looked up): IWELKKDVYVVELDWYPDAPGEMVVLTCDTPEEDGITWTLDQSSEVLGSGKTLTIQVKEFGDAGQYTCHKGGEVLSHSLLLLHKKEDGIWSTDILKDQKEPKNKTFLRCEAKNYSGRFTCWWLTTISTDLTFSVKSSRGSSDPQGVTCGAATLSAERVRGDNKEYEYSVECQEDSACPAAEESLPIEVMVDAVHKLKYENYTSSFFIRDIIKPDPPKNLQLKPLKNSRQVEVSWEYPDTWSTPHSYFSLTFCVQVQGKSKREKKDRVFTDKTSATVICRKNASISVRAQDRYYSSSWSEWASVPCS
Protocol: A microplate was coated with human p40-His (Akeso Biopharma, Inc.; gene of p40: GeneBank NM002187). After incubation at 4° C. for no less than 12 h, the plate was washed with PBST, patted dry and blocked with a solution of 1% BSA in PBS. After blocking was completed, the plate was washed with PBST and patted dry. The antibody diluted with PBST solution in gradient was added into the wells of the plate, and the antibody dilution gradient is detailed in Table 1. The plate containing the test antibody was incubated at 37° C. for 30 min and then washed with PBST and patted dry. […] TMB (Neogen, 308177) was added for color developing for 5 min in the absence of light, and then stop solution was added to terminate the chromogenic reaction. Then the plate was put into a plate reader immediately, and the OD value of each well in the plate was read at 450 nm. The data were analyzed by SoftMax Pro 6.2.1.
The binding EC₅₀ of antibody was calculated by curve fitting using antibody concentration as the abscissa and absorbance value as the ordinate, and the results are shown in Table 4 below.

[2] = biological target: T2, Human IL12 (His Tag) (human, UniProt P29459 23-219; P29460 23-328); experiment: FACS competition, IL12-His (40 nM mixed 1:1) on 293T-IL-12Rβ1&IL-23R cells
T2 construct: Bought His-tagged heterodimer
T2 sequence (looked up) 1: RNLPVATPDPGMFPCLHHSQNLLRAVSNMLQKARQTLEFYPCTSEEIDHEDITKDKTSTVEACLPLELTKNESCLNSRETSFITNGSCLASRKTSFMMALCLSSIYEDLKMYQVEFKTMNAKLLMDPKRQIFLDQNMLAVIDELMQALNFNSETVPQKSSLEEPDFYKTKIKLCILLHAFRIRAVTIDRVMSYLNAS
T2 sequence (looked up) 2: T1 sequence (looked up)
Protocol: 200 μL of 1% PBSA was added into each sample, and the mixture was centrifuged at 1200 rpm for 5 min to discard the supernatant. According to experiment design, correspondingly diluted antibody (highest final concentration of 60 μg/mL, 3-fold dilution, 8 concentrations in total) and IL12-His (Sino Biological, Cat. No.: CT-050-H08H-20) (40 nM) were mixed at a ratio of 1:1, and a blank control was set. The mixture of antibody and IL12 was incubated on ice for 30 min and then added to the cell precipitate at 100 μL/sample. The resulting mixture was well mixed and incubated on ice for 60 min 200 μL of 1% PBSA was added, and the mixture was centrifuged at 1200 rpm for 5 min to discard the supernatant, and then washed twice. THETM His tag antibody (FITC) (Genscript, Cat. No.: A01620) was diluted at a ratio of 1:500 and added to each tube at 100 μL. The mixture was well mixed and incubated on ice for 40 min in the absence of light. 200 μL of 1% PBSA was added, and the mixture was centrifuged at 1200 rpm for 5 min to discard the supernatant, and then washed twice. 1% PBSA was added at 200 μL/tube, and the cells were resuspended and transferred to a flow cytometry tube for testing.

[3] = biological target: T1, human p40-His; experiment: BLI (Fortebio), p40-His on HIS1K sensor, antibody 5-0.31 nM, 37 °C, 1:1 fit
Protocol: The sample dilution buffer for H5L9, H5L10, H5L11, H5L12, H5L14, H8L15, Ab123FR1 and ustekinumab was PBS (0.02% Tween-20, 0.1% BSA, pH 7.4). p40-His was immobilized on a HIS1K (manufacturer: Fortebio, Cat. No.: 18-5120) sensor at a concentration of 1 μg/mL for 40 s. The sensor was equilibrated in a buffer for 60 s, and the p40-His immobilized on the sensor bound to the antibody at a concentration of 5-0.31 nM (two-fold dilution) for 120 s, and then the protein dissociated in the buffer for 300 s. The sensor was refreshed with 10 mM glycine solution (pH=1.5). The detection temperature was 37° C., the detection frequency was 0.3 Hz, and the sample plate shaking rate was 500 rpm. The data were analyzed by 1:1 model fitting to obtain affinity constants.

[4] = biological target: T3, human IL-23 (IL-23-His-Biotin) (human, UniProt Q9NPF7 20-189; P29460 23-328, biotin label, site not stated); experiment: FACS competition, IL23-His-Biotin (4 µg/mL mixed 1:1) on 293T-IL-12Rβ1&IL-23R cells
T3 construct: Akesobio lot 20161209; His-tagged and biotinylated
T3 sequence (looked up) 1: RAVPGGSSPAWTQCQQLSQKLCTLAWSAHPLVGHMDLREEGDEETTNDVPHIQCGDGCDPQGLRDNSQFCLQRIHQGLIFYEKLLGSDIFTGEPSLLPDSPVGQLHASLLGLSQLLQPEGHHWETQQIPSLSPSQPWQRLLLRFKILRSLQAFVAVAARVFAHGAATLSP
T3 sequence (looked up) 2: T1 sequence (looked up)
Protocol: 200 μL of 1% PBSA was added into each sample, and the mixture was centrifuged at 1200 rpm for 5 min to discard the supernatant. According to experiment design, correspondingly diluted antibody (highest concentration of 60 μg/mL, 3-fold dilution, 8 concentrations in total) and human IL23-His-Biotin (Akeso Biopharma, Inc., Lot. No.: 20161209) (4 μg/mL) were mixed at a ratio of 1:1, and a blank control was set. The mixture of antibody and IL23-His-Biotin was incubated on ice for 30 min and then added to the cell precipitate at 100 μL/sample. The resulting mixture was well mixed and incubated on ice for 60 min. 200 μL of 1% PBSA was added, and the mixture was centrifuged at 1200 rpm for 5 min to discard the supernatant, and then washed twice. FITC Steptavidin (Biolegend, Cat. No.: 405202) was diluted at a ratio of 1:500 and added to each tube at 100 μL. The mixture was well mixed and incubated on ice for 40 min in the absence of light. 200 μL of 1% PBSA was added, and the mixture was centrifuged at 1200 rpm for 5 min to discard the supernatant, and then washed twice. 1% PBSA was added at 200 μL/tube, and the cells were resuspended and transferred to a flow cytometry tube for testing.

B1: H8L15 (antibody, human IgG1, kappa, V domains shown)
VH: EVQLVQSGAEVKKPGESLKISCQSSGYTFTSYWIGWVRQMPGQGLEWIGIMSPVDSDIRYNPMFRGQVTMSVDKSSSTAYLQWSSLKASDTAMYYCARRRPGQGYFDFWGQGTMVTVSS
VL: EIVLTQSPATLSASPGERATISCRASQSVGTWVAWYQQKPGQAPRSLIYAASNLQSGIPARFSGSGSGTDFTLTISSLEPEDFAVYYCQQYNIYPYTFGQGTRLEIKR
notes: human IgG1 (P01857) / kappa (P01834) constant regions; also called anti-human IL-12/IL-23 p40 antibody H8L15; H8L15H1L1
EC50 [1]: 0.059 nM | EC50 [2]: 1.46 µg/mL | Kd [3]: 0.0609 nM | S E (kon) [3]: 213000 M⁻¹ s⁻¹ | S E(kdis) [3]: 0.000137 s⁻¹ | koff [3]: 0.00018 s⁻¹ | kon [3]: 2.95e+06 M⁻¹ s⁻¹ | EC50 [4]: 0.894 µg/mL
